Results taken from patent publication US20050152896A1 (Amgen, published 2005).
Numbering of substitutions follows the chain as printed.

T1: murine galanin (mature, processed form) (murine, UniProt P47212 33-61, not fully specified)
T1 construct: mature
T1 peptide (looked up): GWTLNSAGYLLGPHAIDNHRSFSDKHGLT

T2: peptide of the 14 C-terminal amino acids of human galanin (human, UniProt P22466 49-62)
T2 construct: domain: 14 C-terminal amino acids of human galanin
T2 peptide (looked up): GNHRSFSDKNGLTS

T3: human galanin (mature, processed form) (human, UniProt P22466 33-62, 125I-labelled in the filtration and immunoprecipitation assays; biotinylated in the IGEN assay and in the BIAcore assay of Table 4)
T3 construct: mature; the assays used the mature peptide; also called biotinylated galanin
T3 peptide (looked up): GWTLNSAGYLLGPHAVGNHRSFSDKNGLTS

B1: murine monoclonal antibody 4B3 (antibody, mouse IgG1, V domains shown)
VH: EIQLQQSEAELVKPGASVRLSCATSGFNIKDYYIHWVKQTTEQGLEWIGRIDPEDGETEYAPKFQGKATIAADTSSNTAYLLLNSLSSEDTAVYYCTRGYASWGQGTTLTVSS
VL: DVLMTQTPLSLSVSLGDQASISCRSSQSFVHSDGNTYLEWYLQKSGQSPKLLIYKVSNRFSGVPDRFSGSGSGTDFTLKINRVEAEDLGVYYCFQGSHVPYTFGGGTKLEIKR
notes: purified from ascites
B2: murine monoclonal antibody 2F8 (antibody, mouse IgG1, V domains shown)
VH: EVQLQQSGAELVRPGALVKLSCKASGFNIEDYYIHWVRQRPEEGLEWIGRIDPENGNTIYDPKFQGKASLTADTSSNTAYLQLSSLTSEDTAVYFCARGYVDWGQGTLVTVSA
VL: B1 VL with S12P, F29I, N35D, S45P, N81I, V90L, Y92F
B3: murine monoclonal antibody 5B4 (antibody, mouse IgG2a, V domains shown)
VH: B2 VH with I34M, L70I, F95Y, A97V
VL: B1 VL with S12P, F29I, N35D, S45A, N81S, V90L
notes: purified from ascites; also called hybridoma 5B4C1 (ATCC PTA-5651)
B4: murine monoclonal antibody 2E11 (antibody, V domains shown)
VH: EIQLQQSGAEVMKPGASVKISCKATGYTFSNYWIEWIKQRPGHGLEWIGEILPGSESTKYNEKFKGKATFTTDTSSNTAYMQLSSLTSEDSAVYYCATFYGGFDYWGQGTTLTVSS
VL: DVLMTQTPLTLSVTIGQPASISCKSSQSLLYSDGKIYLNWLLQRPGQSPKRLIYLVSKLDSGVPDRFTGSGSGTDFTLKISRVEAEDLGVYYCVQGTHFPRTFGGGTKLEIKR
notes: the legend is followed
B5: murine monoclonal antibody 1D7 (antibody, mouse IgG1, V domains shown)
VH: B1 VH
VL: B1 VL
notes: purified from ascites; also called hybridoma 1D7D1 (ATCC PTA-5650)
B6: murine monoclonal antibody 1G12 (antibody, mouse IgG1, V domains shown)
VH: EVQLQQSGAELVKPGASVQLSCTASGFNIKDYYIHWVQQRTEQGLEWIGRIDPEDGEIEYAPKFQDKATITADTSSNTAYLQLSSLTSEDSAVYYCTRGYASWGQGTTLTVSS
VL: B1 VL with S12P, S28T, S45P, N81S
notes: The legend prints 'murine 1G2' for the VH
B7: Fab fragment of murine antibody 5B4 (Fab, V domains shown)
VH: B2 VH with I34M, L70I, F95Y, A97V
VL: B1 VL with S12P, F29I, N35D, S45A, N81S, V90L
notes: Papain Fab of the hybridoma antibody; also called 5B4 Fab
B8: Fab fragment of murine antibody 4B3 (Fab, V domains shown)
VH: B1 VH
VL: B1 VL
notes: Papain Fab of the hybridoma antibody; also called 4B3 Fab
B9: Fab fragment of murine antibody 1D7 (Fab, V domains shown)
VH: B1 VH
VL: B1 VL
notes: Papain Fab of the hybridoma antibody; also called 1D7 Fab
B10: murine monoclonal antibody 2H9 (antibody, mouse IgG1, V domains shown)
VH: B1 VH
VL: B1 VL
B11: murine monoclonal antibody 1A1 (antibody, V domains shown)
VH: EIQLQQSEAELVRPGALVKLSCKTSGFNIKDYYMHWVKQRPEQGLEWIGRIDPENDNSIYDPNFQGKASITADTSSNTAYLQLSSLTSEDTAVYYCVRGYVDWGQGTLVTVSA
VL: B1 VL with S12P, F29I, N35D, S45P, Y54F, N81S
notes: the legend is followed
B12: humanized 5B4 IgG1: light chain zu5B4 v04 with heavy chain zu5B4 v04 (antibody, V domains shown)
VH: EVQLVQSGAEVKKPGATVKISCKVSGFNIEDYYMHWVQQAPGKGLEWMGRIDPENGNTIYDPKFQGRVTITADTSTNTAYLDLSSLRSEDTAVYYCARGYVDWGQGTLVTVSS
VL: DVVMTQSPLSLPVTLGQPASISCRSSQSIVHSDGDTYLEWYLQRPGQSPMLLIYKVSNRFSGVPDRFSGSGSGTDFTLKITRVEAEDVGVYYCFQGSHVPYTFGGGTKVEIKR
notes: also called P1A7 (as IgG1); humanized 5B4-v4
B13: humanized 5B4 IgG1: light chain zu5B4 v04 with heavy chain zu5B4 v06 (antibody, V domains shown)
VH: B12 VH with M48I, V68A
VL: B12 VL
notes: Human IgG1 / human kappa, expressed in E5 cells; VH of humanized 5B4-v6, VL of humanized 5B4-v4
B14: humanized 5B4 IgG1: light chain zu5B4 v04 with heavy chain zu5B4 v11 (antibody, V domains shown)
VH: B12 VH with L81M
VL: B12 VL
notes: Human IgG1 / human kappa, expressed in E5 cells; VH of humanized 5B4-v11, VL of humanized 5B4-v4
B15: humanized 5B4 IgG1: light chain zu5B4 v04 with heavy chain zu5B4 v12 (antibody, V domains shown)
VH: B12 VH with V68A, N77D
VL: B12 VL
notes: Human IgG1 / human kappa, expressed in E5 cells; VH of humanized 5B4-v12, VL of humanized 5B4-v4
B16: humanized 5B4 IgG1: light chain zu5B4 v04 with heavy chain zu5B4 v13 (antibody, V domains shown)
VH: B12 VH with M48I, L81M
VL: B12 VL
notes: Human IgG1 / human kappa, expressed in E5 cells; VH of humanized 5B4-v13, VL of humanized 5B4-v4
B17: humanized 5B4 IgG1: light chain zu5B4 v05 with heavy chain zu5B4 v04 (antibody, V domains shown)
VH: B12 VH
VL: B12 VL with L42Q, L51S
notes: Human IgG1 / human kappa, expressed in E5 cells; VH of humanized 5B4-v4, VL of humanized 5B4-v5
B18: humanized 5B4 IgG1: light chain zu5B4 v13 with heavy chain zu5B4 v04 (antibody, V domains shown)
VH: B12 VH
VL: B12 VL with L42Q
notes: Human IgG1 / human kappa, expressed in E5 cells; VH of humanized 5B4-v4, VL of humanized 5B4-v13

Biological target: T1, murine galanin (mature, processed form)
Assay: epitope mapping

Row | Binder | binding result
1 | B1 | binds
2 | B2 | binds
3 | B3 | binds
4 | B4 | binds
5 | B5 | binds
6 | B6 | binds

Biological target: T2, peptide of the 14 C-terminal amino …
Assay: co-crystal structure

Row | Binder | binding result
7 | B7 | binds
8 | B8 | binds
9 | B9 | binds

Biological target: T3, human galanin (mature, processed form)
Assay: BIAcore SPR; biotinylated galanin on a streptavidin chip, MAb flowed
Procedure: The galanin binding assay uses the ORIGEN technology (IGEN, Gaithersburg, Md.) and measures solution state binding. 0.75 μg/ml biotinylated galanin and 2 μg/ml ORI-TAG anti-mouse IgG were preincubated with serially diluted MAbs. 0.4 mg/ml streptavidin-coated Dyna beads were added, incubated, and read on an IGEN M8 Analyzer. In the plasmon surface resonance assay, biotinylated galanin was bound to a streptavidin-coated sensor chip and MAbs allowed to pass through the flow cells in order to generate on and off rates. In every assay tested, the MAbs ranked in virtually the same order.

Row | Binder | Ka | Kd
10 | B1 | 1.4e+10 M⁻¹ | 0.07 nM
11 | B2 | 6.8e+09 M⁻¹ | 0.15 nM
12 | B10 | 6.7e+09 M⁻¹ | 0.15 nM
13 | B3 | 7.5e+09 M⁻¹ | 0.13 nM
14 | B11 | 2.5e+09 M⁻¹ | 0.4 nM
15 | B4 | 5e+08 M⁻¹ | 2.1 nM
16 | B5 | 1.5e+10 M⁻¹ | 0.09 nM
17 | B6 | 9.3e+09 M⁻¹ | 0.11 nM

Biological target: T3, human galanin (mature, processed form)
Assay: BIAcore 3000; IgG captured by goat anti-human IgG Fc on CM5, human galanin peptide flowed; 1:1 Langmuir fit
Description: In terms of ELISA signal, the top 17 Fab fragments consisted of various combinations of three light chains and five heavy chains. For example, the heavy variable region of Fab P1A7 was identical to the heavy variable regions of Fabs R2E9 and R2E8. The five heavy variable regions were amplified by PCR and the PCR products were subcloned into a human IgG1 heavy chain mammalian expression vector, pVE414N. The three light variable region products were amplified by PCR and were subcloned into a human kappa light chain mammalian expression vector, pDC414N. The sequences of the heavy and light chains constructs were confirmed by DNA sequencing. Fab fragment P1A7 yielded the strongest ELISA signal. To determine which heavy or light variable regions might yield the highest affinity antibody, each heavy chain was co-expressed with the P1A7 light chain, and each light chain was co-expressed with the P1A7 heavy chain. These IgG heavy and light chain combinations were expressed in […] and were purified from the cell culture medium using protein A affinity chromatography. Affinities of these purified antibodies were measured on a BIAcore 3000. Goat anti-human IgG Fc antibody immobilized on CM5 sensor chips was used to capture P1A7 and the variants. Human galanin peptide was flowed over the chip surface with captured anti galanin antibody. The binding kinetics was analyzed using the model fit of 1:1 Langmuir+local Rmax+Mass Transfer. […] Antibodies with P1A7 light chain paired with the five different heavy chains yield nearly identical dissociation constants.

Row | Binder | Kd | koff | kon
18 | B12 | 1.8 nM | 0.0059 s⁻¹ | 3.3e+06 M⁻¹ s⁻¹
19 | B13 | 1.6 nM | 0.0051 s⁻¹ | 3.2e+06 M⁻¹ s⁻¹
20 | B14 | 1.7 nM | 0.0056 s⁻¹ | 3.2e+06 M⁻¹ s⁻¹
21 | B15 | 1.5 nM | 0.0048 s⁻¹ | 3.2e+06 M⁻¹ s⁻¹
22 | B16 | 1.8 nM | 0.005 s⁻¹ | 2.8e+06 M⁻¹ s⁻¹
23 | B17 | 2.3 nM | 0.0095 s⁻¹ | 4.2e+06 M⁻¹ s⁻¹
24 | B18 | 2 nM | 0.007 s⁻¹ | 3.5e+06 M⁻¹ s⁻¹
